# Data from patent publication US12667625B2, “Antibody-drug conjucates and their uses for the treatment of cancer” (INATHERYS, priority 2018, dated 2026).
# B1: A24: murine monoclonal anti-human TfR antibody as disclosed in WO 2005/111082 (antibody, listed as Homo sapiens, V domains shown)
# VH: QIQLVQSGPELKKPGETVKISCKASGYTFTNQGMNWVKQAPGKGLKWMGWINTYTGEPINADDFKGRFAISLETSASTAYLQINNLKNEDMATYFCVREGWDSMDYWGQGTSVTVSS
# VL: QIVLTQSPAIMSASPGEKVTITCSASSSVNYMHWFQQKPGTSPKLWIYSTSNLASGVPARFSGSGSGTSYSLTISRMEAEDAATYYCQQRSSYPLTFGAGTKLELKR
# Legend:
# THP-1 cell line (CD71+) = experiment: Comparative binding on THP-1 cell line by flow cytometry; conditions: biotinylated antibodies, serial dilutions 5 to 0.05 ug/mL, streptavidin Alexa F488
# Protocol: (§1) Serial dilutions (5 to 0.05 ug/mL) of both biotinylated antibodies (antibody A24 and antibody of ADC INA01-SDV1) were performed and incubated on THP-1 and MEC-1 cell lines. The binding of the diluted antibodies was detected by Flow cytometry using streptavidin Alexa F488 (available at ThermoFisher scientific).
# MEC-1 cell line (CD71+) = experiment: Comparative binding on MEC-1 cell line by flow cytometry; conditions: biotinylated antibodies, serial dilutions 5 to 0.05 ug/mL, streptavidin Alexa F488
# Protocol: as §1
molecule,measurement,setting,value
B1,affinity to the CD71+ cell line (binding),THP-1 cell line (CD71+),identical affinity
same,affinity to the CD71+ cell line (binding),MEC-1 cell line (CD71+),identical affinity
